Assay results as given in paper PMC6613617, “Human DNA polymerase delta requires an iron–sulfur cluster for high-fidelity DNA synthesis” (Life Science Alliance, 2019).

Columns and labels:
[1] = biological target: T1, N-terminally Flag-tagged POLD1 (catalytic subunit of human DNA polymerase delta), wild type (human, UniProt P28340 1-1107); test: pull-down; Flag-pull down (Flag-M2 agarose) from lysate of Sf9 cells co-expressing Flag-POLD1 variant, POLD2, POLD3, POLD4 and untagged PCNA; 50 mM Tris-HCl pH 8.0, 200 mM NaCl, 0.25% NP-40, 4°C; SDS-PAGE with protein stain; settings: partners not purified
T1 construct: DNA polymerase delta catalytic subunit POLD1/p125, human; also called p125; Flag-POLD1; source: Sf9 insect cells, baculovirus co-infection, in lysate; Flag-purified (Flag-M2 agarose, 3x Flag peptide elution); not shown: Flag, N-terminal, kept
T1 sequence (looked up): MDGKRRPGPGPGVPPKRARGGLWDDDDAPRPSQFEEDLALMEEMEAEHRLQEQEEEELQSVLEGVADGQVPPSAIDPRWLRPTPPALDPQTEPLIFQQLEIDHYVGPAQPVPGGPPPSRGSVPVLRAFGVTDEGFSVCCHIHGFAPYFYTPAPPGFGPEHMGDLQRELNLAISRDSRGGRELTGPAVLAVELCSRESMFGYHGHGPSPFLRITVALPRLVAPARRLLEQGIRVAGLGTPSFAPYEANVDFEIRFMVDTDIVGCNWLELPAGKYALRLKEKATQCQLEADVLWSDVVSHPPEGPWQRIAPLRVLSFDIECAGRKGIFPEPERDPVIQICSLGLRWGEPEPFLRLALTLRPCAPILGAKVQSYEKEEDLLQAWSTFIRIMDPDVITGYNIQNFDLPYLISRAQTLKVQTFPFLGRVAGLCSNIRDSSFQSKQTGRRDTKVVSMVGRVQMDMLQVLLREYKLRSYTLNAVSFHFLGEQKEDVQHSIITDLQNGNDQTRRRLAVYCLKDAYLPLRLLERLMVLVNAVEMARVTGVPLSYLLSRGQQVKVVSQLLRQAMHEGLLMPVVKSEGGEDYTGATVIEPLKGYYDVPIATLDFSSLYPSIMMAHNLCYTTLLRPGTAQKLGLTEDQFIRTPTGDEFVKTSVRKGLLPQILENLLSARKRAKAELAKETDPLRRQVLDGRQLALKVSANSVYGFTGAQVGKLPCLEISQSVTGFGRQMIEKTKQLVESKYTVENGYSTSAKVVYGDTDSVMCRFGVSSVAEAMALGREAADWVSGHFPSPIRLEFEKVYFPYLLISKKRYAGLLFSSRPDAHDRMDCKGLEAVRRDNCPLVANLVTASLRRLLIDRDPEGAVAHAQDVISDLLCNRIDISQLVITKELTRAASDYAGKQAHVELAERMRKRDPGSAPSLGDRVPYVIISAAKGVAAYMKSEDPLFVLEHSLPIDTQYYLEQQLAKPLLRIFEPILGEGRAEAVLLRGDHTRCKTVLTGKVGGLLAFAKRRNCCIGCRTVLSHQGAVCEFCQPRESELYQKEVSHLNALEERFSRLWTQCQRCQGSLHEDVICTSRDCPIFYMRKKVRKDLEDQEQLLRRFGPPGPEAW

[2] = biological target: T2, N-terminally Flag-tagged POLD1 C1076S (human, UniProt P28340 1-1107, C1076S); test: as above; settings: partners not purified
T2 construct: DNA polymerase delta catalytic subunit POLD1/p125, human; variant made by site-directed mutagenesis; also called CS; Pol δ-CS (bait subunit); source: Sf9 insect cells, baculovirus co-infection, in lysate; Flag-purified (Flag-M2 agarose, 3x Flag peptide elution); not shown: Flag, N-terminal, kept
T2 sequence (looked up): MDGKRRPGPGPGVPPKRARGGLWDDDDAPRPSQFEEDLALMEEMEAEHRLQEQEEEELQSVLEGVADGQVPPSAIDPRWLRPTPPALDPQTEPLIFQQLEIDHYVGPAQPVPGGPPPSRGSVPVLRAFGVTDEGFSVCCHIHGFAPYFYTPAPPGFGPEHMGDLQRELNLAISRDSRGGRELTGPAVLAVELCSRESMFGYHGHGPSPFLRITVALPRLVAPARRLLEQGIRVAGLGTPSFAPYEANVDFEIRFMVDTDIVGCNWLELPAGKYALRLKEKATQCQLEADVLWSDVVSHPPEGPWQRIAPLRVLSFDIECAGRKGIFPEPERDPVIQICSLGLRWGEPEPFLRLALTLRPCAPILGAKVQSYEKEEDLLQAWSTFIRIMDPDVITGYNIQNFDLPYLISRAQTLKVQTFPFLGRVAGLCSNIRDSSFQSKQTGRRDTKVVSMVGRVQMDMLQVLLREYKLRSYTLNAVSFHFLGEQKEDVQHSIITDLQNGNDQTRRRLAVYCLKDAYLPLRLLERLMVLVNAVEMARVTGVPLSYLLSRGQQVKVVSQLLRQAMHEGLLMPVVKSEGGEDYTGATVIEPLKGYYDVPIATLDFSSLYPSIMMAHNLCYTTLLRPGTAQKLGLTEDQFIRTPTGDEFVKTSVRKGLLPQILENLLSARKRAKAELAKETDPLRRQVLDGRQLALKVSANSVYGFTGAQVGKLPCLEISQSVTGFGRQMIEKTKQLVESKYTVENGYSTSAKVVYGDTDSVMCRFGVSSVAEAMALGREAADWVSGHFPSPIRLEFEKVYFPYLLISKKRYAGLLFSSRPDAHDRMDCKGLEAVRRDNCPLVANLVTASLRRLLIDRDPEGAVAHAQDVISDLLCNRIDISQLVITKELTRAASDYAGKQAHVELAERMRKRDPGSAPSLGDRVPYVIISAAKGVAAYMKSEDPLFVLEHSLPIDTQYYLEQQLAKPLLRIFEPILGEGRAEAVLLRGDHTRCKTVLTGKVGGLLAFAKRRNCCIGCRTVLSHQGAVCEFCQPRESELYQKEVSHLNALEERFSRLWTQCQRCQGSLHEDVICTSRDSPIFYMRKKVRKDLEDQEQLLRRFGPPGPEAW

B1: POLD3 (accessory subunit of human DNA polymerase delta), untagged (natural protein, UniProt Q15054 1-466, looked up)
chain: MADQLYLENIDEFVTDQNKIVTYKWLSYTLGVHVNQAKQMLYDYVERKRKENSGAQLHVTYLVSGSLIQNGHSCHKVAVVREDKLEAVKSKLAVTASIHVYSIQKAMLKDSGPLFNTDYDILKSNLQNCSKFSAIQCAAAVPRAPAESSSSSKKFEQSHLHMSSETQANNELTTNGHGPPASKQVSQQPKGIMGMFASKAAAKTQETNKETKTEAKEVTNASAAGNKAPGKGNMMSNFFGKAAMNKFKVNLDSEQAVKEEKIVEQPTVSVTEPKLATPAGLKKSSKKAEPVKVLQKEKKRGKRVALSDDETKETENMRKKRRRIKLPESDSSEDEVFPDSPGAYEAESPSPPPPPSPPLEPVPKTEPEPPSVKSSSGENKRKRKRVLKSKTYLDGEGCIVTEKVYESESCTDSEEELNMKTSSVHRPPAMTVKKEPREERKGPKKGTAALGKANRQVSITGFFQRK
notes: DNA polymerase delta subunit 3 POLD3/p66, human; Expressed from a cassette with self-cleaving T2A peptides; T2A remnants probably stay on its ends and differ between the two cassettes (my surmise); also called p66; source: Sf9 insect cells, baculovirus co-infection (POLD2-T2A-POLD3-T2A-POLD4 or POLD2-T2A-POLD3 cassette), in lysate; co-purified with Flag-POLD1
[1]
  binding result: binds
[2]
  binding result: binds

B2: POLD4 (accessory subunit of human DNA polymerase delta), untagged (natural protein, UniProt Q9HCU8 1-107, looked up)
chain: MGRKRLITDSYPVVKRREGPAGHSKGELAPELGEEPQPRDEEEAELELLRQFDLAWQYGPCTGITRLQRWCRAKQMGLEPPPEVWQVLKTHPGDPRFQCSLWHLYPL
notes: DNA polymerase delta subunit 4 POLD4/p12, human; Expressed from a cassette with self-cleaving T2A peptides; A residue of the T2A probably stays on its N-terminus (my surmise); also called p12; source: Sf9 insect cells, baculovirus co-infection (POLD2-T2A-POLD3-T2A-POLD4 cassette), in lysate; co-purified with Flag-POLD1
[1]
  binding result: binds
[2]
  binding result: binds

B3: POLD2 (accessory subunit of human DNA polymerase delta), untagged (natural protein)
chain: not shown
notes: DNA polymerase delta subunit 2 POLD2/p50, human; Expressed from a cassette with self-cleaving T2A peptides; A T2A remnant probably stays on its C-terminus (my surmise); also called p50; source: Sf9 insect cells, baculovirus co-infection (POLD2-T2A-POLD3-T2A-POLD4 or POLD2-T2A-POLD3 cassette), in lysate; co-purified with Flag-POLD1
[2]
  binding result: binds
